Laboratory results reported in patent US20250361295A1 (ANTENGENE BIOLOGICS, published 2025).

B1: h8-B3-F6-H8 (antibody, V domains shown)
VH: EVQLVESGGGLVQPGGSLRLSCAASGFDFSRYWMSWVRQAPGKGLVWIGEINPESSAINYAPSLKDRFTISRDNAKNTLYLQMNSLRAEDTAVYYCATSMTMDYWGQGTLVTVSS
VL: DIQMTQSPSSLSASVGDRVTITCKASQDIKSYLSWYQQKPGKAPKTLIYYATSLAGGVPSRFSGSGSGTDYTLTISSLQPEDFATYYCLQHGESPYTFGGGTKLEIK
notes: humanized antibody of ch8-B3-F6-H8; also called humanized 8-B3-F6-H8
B2: h2-H1-D7-E5-D5 (antibody, V domains shown)
VH: EVQLVESGGGLVQPGGSLRLSCAASGFTFSSFGMHWVRQAPGKGLEWVAYISSGSSSIYYADTVKGRFTISRDNAKNSLYLQMNSLRAEDTAVYYCARGTGTGAMDYWGQGTLVTVSS
VL: DIQMTQSPSSLSASVGDRVTITCRTSQDISNYLNWYQQKPGKAPKLLIYYTSKLHSGVPSRFSGSGSGTDFTFTISSLQPEDIATYFCQQGNTLPWTFGGGTKLEIK
notes: humanized antibody of ch2-H1-D7-E5-D5; also called humanized 2-H1-D7-E5-D5
B3: ch44-F10-B6-D4 (antibody, V domains shown)
VH: EVHLVESGGGLVKPGGSLKLSCAASGFTFSSYAMSWVRQTPEKRLEWVATISSGGSYIYYPDSVKGRFTISRDNAKNTLYLQMSSLRSEDTAMYYCARQDWDGGDYYAMDYWGQGTSVTVSS
VL: DIVMTQSPSSLAVSAGEKVTMSCKSSQSVLYSSNQKNFLAWYQQKPGQSPKLLIYWASTRESGVPDRFTGSGSGTDFTLTISSVQAEDLAVYYCHQYLSSLTFGAGTKLELK

Experiments:
human LILRB4 [1] = target: T1, human LILRB4 (human, UniProt Q8NHJ6 22-448); assay: ELISA and FACS on 293F-hLILRB4 cells
T1 construct: whole, on cells; the same id is used for LILRB4 on THP-1, MV-4-11 and tolerogenic dendritic cells in the functional assays; also called hLILRB4

human LILRA6 protein = target: T2, human LILRA6 protein (human, UniProt Q6PI73 24-447, limits assumed); assay: ELISA, LILRA6 protein
T2 construct: protein for ELISA; construct not described; also called hLILRA6 protein

human LILRB4 [2] = target: T1, human LILRB4; assay: cell-based or functional assay
human LILRB4 [3] = target: T1, human LILRB4; assay: cell-based or functional assay; remark: listed apart in the source
human LILRB4 [4] = target: T1, human LILRB4; assay: cell-based or functional assay; remark: listed apart in the source
human LILRB3 = target: T3, human LILRB3 (human, UniProt O75022 24-631); assay: FACS, 293F-hLILRB3 cells
T3 construct: whole, on cells; also called hLILRB3
Outline: (§1)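 Cells expressing the target (2×10⁵/well) were incubated with antibody for 1 h at 4 °C, washed, and stained with secondary antibody for 1 h at 4 °C in the dark. Binding was read by flow cytometry.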

human LILRB4 [5] = target: T1, human LILRB4; assay: FACS, 293F-hLILRB4 cells
Outline: as §1

[6] = target: T4, cynomolgus (Macaca fascicularis) LILRB4 (cynomolgus (Macaca fascicularis)); assay: FACS, CHO-S-cynoLILRB4 cells
T4 construct: whole, on cells; also called cynoLILRB4; CHO-S-cynoLILRB4
Description: The protocol for FACS analysis is described as follows: [0438] (a) Cells were harvested by centrifugation at 300 g for 3 mins. […] (b) The cells were washed for 2 times with FACS buffer by centrifuging at 300 g for 3 mins and the supernatant was discarded. [0440] (c) Cell were resuspended and seeded into assay plate (2×10⁵ cells/well) in 50 μl FACS buffer. […] Cells were incubated with antibodies at 4° C. for 1 hour. […] (d) Step (b) was repeated and the cells were resuspended with 100 μl diluted 2nd antibody, incubated at 4° C. for 1 hour in the dark. [0442] (e) Step (b) was repeated and the cells were resuspended with 100 μl FACS buffer. The cells were kept in dark for FACS analysis.

T2 sequence (Q6PI73 24-447 limits assumed): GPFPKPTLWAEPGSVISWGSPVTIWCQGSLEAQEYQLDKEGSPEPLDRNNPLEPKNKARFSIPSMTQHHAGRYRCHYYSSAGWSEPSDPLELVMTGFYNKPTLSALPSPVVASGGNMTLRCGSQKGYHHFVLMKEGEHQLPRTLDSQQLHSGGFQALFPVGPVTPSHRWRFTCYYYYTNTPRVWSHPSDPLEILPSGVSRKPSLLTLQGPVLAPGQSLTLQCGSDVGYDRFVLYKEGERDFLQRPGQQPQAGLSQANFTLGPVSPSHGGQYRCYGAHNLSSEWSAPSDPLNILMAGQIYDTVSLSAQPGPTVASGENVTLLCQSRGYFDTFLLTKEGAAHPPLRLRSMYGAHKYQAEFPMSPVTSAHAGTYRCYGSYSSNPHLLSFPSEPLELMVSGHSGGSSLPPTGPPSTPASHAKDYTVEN
T3 sequence (O75022 24-631): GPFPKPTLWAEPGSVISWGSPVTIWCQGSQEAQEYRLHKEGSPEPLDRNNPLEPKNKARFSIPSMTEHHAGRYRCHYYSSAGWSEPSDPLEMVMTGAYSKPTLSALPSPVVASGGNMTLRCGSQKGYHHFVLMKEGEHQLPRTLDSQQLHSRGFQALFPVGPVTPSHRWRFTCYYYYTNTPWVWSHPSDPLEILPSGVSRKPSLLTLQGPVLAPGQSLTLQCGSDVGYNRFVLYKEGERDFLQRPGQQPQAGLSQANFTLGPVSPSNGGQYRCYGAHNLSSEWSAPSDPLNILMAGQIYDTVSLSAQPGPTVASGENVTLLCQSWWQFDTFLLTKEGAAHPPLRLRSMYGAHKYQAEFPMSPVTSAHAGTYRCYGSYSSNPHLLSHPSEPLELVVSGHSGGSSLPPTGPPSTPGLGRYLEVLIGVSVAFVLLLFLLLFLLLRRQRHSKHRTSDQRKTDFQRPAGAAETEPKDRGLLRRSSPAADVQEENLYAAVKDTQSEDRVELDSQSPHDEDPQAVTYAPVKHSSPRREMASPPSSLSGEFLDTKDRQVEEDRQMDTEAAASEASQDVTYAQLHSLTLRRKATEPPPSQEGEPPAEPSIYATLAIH

Binder	binding result (human LILRB4 [1])	binding result (human LILRA6 protein)	EC50 (nM), ADCC on THP-1 cells (human LILRB4 [2])	Max cell cytotoxicity (%), ADCC on THP-1 cells (human LILRB4 [2])	ADCP (%) at 133.3 nM, macrophages and MV-4-11 cells (human LILRB4 [3])	FcγR stimulation (TNF-α, pg/mL) (human LILRB4 [4])	Fold change (Compared to isotype) (human LILRB4 [4])	binding result (human LILRB3)	EC50 (human LILRB4 [5])	Max MFI (human LILRB4 [5])	EC50 [6]
B1	binds										
B2	binds										
B3		no binding	1.43 nM	0.43%	3.12%	126 pg/mL	3.97 fold	no binding (tested: up to 66.67 nM)	0.57 nM	5470 MFI	103 nM
